Experimental findings from doi:10.1101/2025.11.07.687187 (bioRxiv, 2025) are described below.

This series concerns the molecule itself. Nature of the series: cryo-EM structure.

B1: SPATA5 wild-type, C-terminal 3xFLAG (enzyme, human, UniProt Q8NB90 1-893, looked up)
chain: MSSKKNRKRLNQSAENGSSLPSAASSCAEARAPSAGSDFAATSGTLTVTNLLEKVDDKIPKTFQNSLIHLGLNTMKSANICIGRPVLLTSLNGKQEVYTAWPMAGFPGGKVGLSEMAQKNVGVRPGDAIQVQPLVGAVLQAEEMDVALSDKDMEINEEELTGCILRKLDGKIVLPGNFLYCTFYGRPYKLQVLRVKGADGMILGGPQSDSDTDAQRMAFEQSSMETSSLELSLQLSQLDLEDTQIPTSRSTPYKPIDDRITNKASDVLLDVTQSPGDGSGLMLEEVTGLKCNFESAREGNEQLTEEERLLKFSIGAKCNTDTFYFISSTTRVNFTEIDKNSKEQDNQFKVTYDMIGGLSSQLKAIREIIELPLKQPELFKSYGIPAPRGVLLYGPPGTGKTMIARAVANEVGAYVSVINGPEIISKFYGETEAKLRQIFAEATLRHPSIIFIDELDALCPKREGAQNEVEKRVVASLLTLMDGIGSEVSEGQVLVLGATNRPHALDAALRRPGRFDKEIEIGVPNAQDRLDILQKLLRRVPHLLTEAELLQLANSAHGYVGADLKVLCNEAGLCALRRILKKQPNLPDVKVAGLVKITLKDFLQAMNDIRPSAMREIAIDVPNVSWSDIGGLESIKLKLEQAVEWPLKHPESFIRMGIQPPKGVLLYGPPGCSKTMIAKALANESGLNFLAIKGPELMNKYVGESERAVRETFRKARAVAPSIIFFDELDALAVERGSSLGAGNVADRVLAQLLTEMDGIEQLKDVTILAATNRPDRIDKALMRPGRIDRIIYVPLPDAATRREIFKLQFHSMPVSNEVDLDELILQTDAYSGAEIVAVCREAALLALEEDIQANLIMKRHFTQALSTVTPRIPESLRRFYEDYQEKSGLHTL
Turning to B1, the binding result is listed as “binds”.
